From paper PMC6392013 (Methods in molecular biology (Clifton, N.J.), 2012)

Biological target: ubiquitin (UniProt P0CG48 1-76)
Assay: NMR intermolecular NOESY

B1: S5a (196–306) (domain or fragment, UniProt P55036 196-306, looked up)
chain: MLGLGASDFEFGVDPSADPELALALRVSMEEQRQRQEEEARRAAAASAAEAGIATTGTEDSDDALLKMTISQQEFGRTGLPDLSSMTEEEQIAYAMQMSLQGAEFGQAESA
B1: binds.
